Measured values: patent US20210371492A1 (INNOVATIVE CELLULAR THERAPEUTICS, published 2021)

Tests used:
[1] = biological target: T1, GCC-His fusion protein (recombinant extracellular region of GCC with His tag) (human, UniProt P25092 24-430); experiment: ELISA, GUC2C-his coat 3ug/ml, antibody titrated, OD490
T1 construct: also called GUC2C-His; recombinant GCC extracellular domain

[2] = biological target: T1, GCC-His fusion protein (recombinant …); experiment: BIAcore (SPR), GCC-His as mobile phase
[3] = biological target: T1, GCC-His fusion protein (recombinant …); experiment: phage-ELISA, Fab phage library screened on GCC-His

B1: R8C11VH/L4G6VK-mIgG2a (antibody, V domains shown)
VH: QVQLQQWGAGLLKPSETLSLTCAVFGGSFSGYYWSWIRQPPGKGLEWIGEINHRGNINDNPSLKSRVTISVDTSKNQFALKLSSVTAADTAVYYCARERGYSFGNYDHWGQGTLVTVSS
VL: EIVMTQSPATLSVSPGERATLSCRASQTVTRNLAWYQQKPGQAPRLLIYGASTRATGIPARFSGSGSGTEFTLTIGSLQSEDFAVYYCQQYKSWPRSFGQGTNVEIK
notes: Whole antibody with human variable regions and mouse constant regions (pMABG2a, pMABK); also called R8C11+L4G6
EC50 (read off the curve) [1]: ~2 nM
Kd [2]: 11.8 nM

B2: R7C8+L1E2 (Fab clone from the recombinant human phage antibody library) (Fab, V domains shown)
VH: QVQLQQWGAGLLKPSETLSLTCAVFGGSFSGYYWSWIRQPPGKGLEWIGEINHRGNINDNPSLKSRVTISVDTSKNQFALKLSSVTAADTAVYYCARERGYTYGNYEHWGQGTLVTVSS
VL: EIVMTQSPATLSVSPGERATLSCRASQTVNRNLAWYQQKPGQAPRLLIYGASTRATGIPARFSGSGSGTEFTLTIGSLQSEDFAVYYCQQYKTWPRTFGQGTNVEIK
binding result [3]: binds

B3: R8C11VH/L3B4VK-mIgG2a (antibody, V domains shown)
VH: QVQLQQWGAGLLKPSETLSLTCAVFGGSFSGYYWSWIRQPPGKGLEWIGEINHRGNINDNPSLKSRVTISVDTSKNQFALKLSSVTAADTAVYYCARERGYSFGNYDHWGQGTLVTVSS
VL: EIVMTQSPATLSVSPGERATLSCRASQTVTRNLAWYQQKPGQAPRLLIYGASTRATGIPARFSGSGSGTEFTLTIGSLQSEDFAVYYCQQYKSWPRTFGQGTNVEIK
notes: Whole antibody with human variable regions and mouse constant regions (pMABG2a, pMABK); also called R8C11+L3B4
Kd [2]: 11.2 nM
